Source: PMC12064060 (mAbs, 2025)

Target: Nb4 × 3 (trimeric Nb4, three VHH domains in tandem) (dromedary)
Test: ELISA

B1: SARS-CoV-1 RBD-Fc (Fc fusion)
chain: not shown
  binding result: binds
